The record followed here is patent US20250277054A1.

Assay [1] addresses Mouse PSMA.ECD.His (Acro) (mouse) (UniProt O35409). The assay can be described thus: ELISA, coated mouse PSMA protein (His tag). On the technique in general: In an ELISA, binding on a coated surface is turned into a signal by an enzyme label.
Assay [2] concerns the target human PSMA on human prostate cancer cells (LNCaP, C4-2, 22Rv1) (human) (UniProt Q04609). In words: flow cytometry on LNCaP cells (PSMA high). (In general: A flow cytometer gives signals particle by particle.)
Assay [3] has the same target. In words: flow cytometry on 22Rv1 cells (PSMA low).
The target is the same in assay [4]. In words: flow cytometry on C4-2 cells (PSMA high).
Assay [5] concerns the target Human PSMA.ECD.His (Acro) (human) (UniProt Q04609). In words: ELISA, coated human PSMA protein (His tag).
For assay [6], the target named is Biotinylated Human PSMA/FOLH1 Protein, His, Avitag (human) (UniProt Q04609). In words: SPR (Biacore 8K), biotinylated human PSMA captured on streptavidin chip, antibody injected, single-cycle, 1:1 model. A general note: Surface plasmon resonance follows binding to a sensor surface in real time, without labels.
Biotinylated Human PSMA/FOLH1 Protein, His, Avitag (human), sequence (Q04609 44-750 limits assumed): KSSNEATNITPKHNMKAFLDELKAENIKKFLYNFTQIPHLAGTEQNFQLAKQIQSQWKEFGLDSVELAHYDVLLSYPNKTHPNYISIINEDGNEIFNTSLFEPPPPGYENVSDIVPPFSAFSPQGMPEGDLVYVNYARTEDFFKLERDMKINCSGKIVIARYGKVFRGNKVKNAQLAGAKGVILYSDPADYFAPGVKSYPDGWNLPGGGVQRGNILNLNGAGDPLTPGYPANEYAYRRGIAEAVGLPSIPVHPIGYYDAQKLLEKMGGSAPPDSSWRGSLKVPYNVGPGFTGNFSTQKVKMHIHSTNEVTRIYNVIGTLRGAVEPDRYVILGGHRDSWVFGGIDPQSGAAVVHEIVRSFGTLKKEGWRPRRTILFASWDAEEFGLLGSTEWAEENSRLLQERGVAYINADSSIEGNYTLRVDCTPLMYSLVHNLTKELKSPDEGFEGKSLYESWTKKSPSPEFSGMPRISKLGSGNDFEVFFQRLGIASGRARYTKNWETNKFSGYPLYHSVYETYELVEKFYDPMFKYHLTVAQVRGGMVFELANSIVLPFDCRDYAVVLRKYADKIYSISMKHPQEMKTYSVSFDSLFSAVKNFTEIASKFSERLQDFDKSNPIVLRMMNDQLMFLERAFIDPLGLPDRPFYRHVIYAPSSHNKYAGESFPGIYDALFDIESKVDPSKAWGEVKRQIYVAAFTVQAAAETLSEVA
For assay [7], the target named is full-length cynomolgus PSMA on Flp-in CHO cells (WBP3xx042-FlpinCHO.cPro1.B7) (cynomolgus). The assay can be described thus: flow cytometry on FlpInCHO-cyno PSMA cells.
The target in assay [8] is Cyno PSMA.ECD.His (Acro) (cynomolgus). The assay can be described thus: ELISA, coated cynomolgus PSMA protein (His tag).
Assay [9] shares this target. In words: SPR (Biacore 8K), antibody captured by anti-human IgG Fc, PSMA injected, 1:1 model.
Assay [10] deals with Human PSMA.ECD.His (Acro) (human) (UniProt Q04609). The description is as above.
Human PSMA.ECD.His (Acro) (human), sequence (Q04609 44-750): as the sequence (Q04609 44-750 limits assumed) above
Assay [11] has the same target. In words: ELISA, human PSMA ECD captured by anti-His antibody.
Assay [12] concerns the target Cyno PSMA.ECD.His (Acro) (cynomolgus). In words: ELISA, cynomolgus PSMA ECD captured by anti-His antibody.
In assay [13] the target is full-length cynomolgus PSMA on Flp-in CHO cells (WBP3xx042-FlpinCHO.cPro1.B7) (cynomolgus). The assay can be described thus: flow cytometry on cynomolgus PSMA-expressing CHO cells.
In assay [14] the target is human PSMA on human prostate cancer cells (LNCaP, C4-2, 22Rv1) (human) (UniProt Q04609). The assay can be described thus: flow cytometry on LNCaP cells.
human PSMA on human prostate cancer cells (LNCaP, C4-2, 22Rv1) (human), sequence (Q04609 whole entry): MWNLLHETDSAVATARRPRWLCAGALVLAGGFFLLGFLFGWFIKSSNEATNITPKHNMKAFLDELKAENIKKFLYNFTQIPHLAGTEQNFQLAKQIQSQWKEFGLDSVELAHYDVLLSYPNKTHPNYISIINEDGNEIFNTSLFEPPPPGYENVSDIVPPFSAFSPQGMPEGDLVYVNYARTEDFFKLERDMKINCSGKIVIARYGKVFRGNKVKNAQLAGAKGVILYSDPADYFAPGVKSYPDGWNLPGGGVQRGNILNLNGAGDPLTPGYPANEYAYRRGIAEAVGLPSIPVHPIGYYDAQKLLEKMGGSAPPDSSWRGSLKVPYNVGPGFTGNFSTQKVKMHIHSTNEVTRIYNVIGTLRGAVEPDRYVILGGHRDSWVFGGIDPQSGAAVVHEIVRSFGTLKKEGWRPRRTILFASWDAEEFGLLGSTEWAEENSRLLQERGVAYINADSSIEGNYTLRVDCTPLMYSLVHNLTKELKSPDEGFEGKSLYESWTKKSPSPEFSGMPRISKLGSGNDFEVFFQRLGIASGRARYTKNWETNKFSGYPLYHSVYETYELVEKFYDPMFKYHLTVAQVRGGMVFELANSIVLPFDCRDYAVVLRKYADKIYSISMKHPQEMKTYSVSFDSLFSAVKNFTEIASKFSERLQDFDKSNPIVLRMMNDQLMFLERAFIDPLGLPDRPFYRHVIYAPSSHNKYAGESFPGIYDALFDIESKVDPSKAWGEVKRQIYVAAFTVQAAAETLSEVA

As a reminder, the EC50 is the concentration needed to bring the measured effect to its halfway point. By Kd is commonly meant the equilibrium constant for the complex coming apart. The low end stands for higher affinity, the high end for lower affinity. A word on the koff: it is the first-order rate constant of dissociation. Read a high koff as fast dissociation. One may read the kon as a measure of how fast the partners come together. A low value points to slow association.

Mouse PSMA.ECD.His (Acro) (mouse), sequence (O35409 45-752): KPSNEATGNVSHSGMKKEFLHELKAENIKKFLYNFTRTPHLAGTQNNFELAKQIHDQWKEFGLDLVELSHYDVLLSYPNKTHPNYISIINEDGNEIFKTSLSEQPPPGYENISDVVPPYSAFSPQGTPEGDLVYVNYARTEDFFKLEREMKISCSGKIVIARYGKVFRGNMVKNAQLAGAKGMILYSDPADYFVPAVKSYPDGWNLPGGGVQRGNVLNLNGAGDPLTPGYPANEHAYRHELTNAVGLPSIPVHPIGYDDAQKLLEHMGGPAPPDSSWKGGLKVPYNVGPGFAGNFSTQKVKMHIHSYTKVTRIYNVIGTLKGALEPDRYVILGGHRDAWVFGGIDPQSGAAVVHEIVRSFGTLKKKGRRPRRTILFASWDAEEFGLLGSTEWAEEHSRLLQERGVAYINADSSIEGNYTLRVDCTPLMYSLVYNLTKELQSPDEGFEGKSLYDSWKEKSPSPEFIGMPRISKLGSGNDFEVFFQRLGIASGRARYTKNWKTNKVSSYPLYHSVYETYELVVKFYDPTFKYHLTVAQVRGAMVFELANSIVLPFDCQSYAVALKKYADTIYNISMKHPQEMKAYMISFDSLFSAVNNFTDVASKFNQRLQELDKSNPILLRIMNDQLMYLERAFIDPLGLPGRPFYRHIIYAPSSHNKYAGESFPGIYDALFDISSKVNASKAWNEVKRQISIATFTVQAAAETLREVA

Take AMG 160 (BMK2) (bispecific antibody): the Max OD450-540 stood at 0.09 OD450-540 in assay [1], 3.52 OD450-540 in [5] and 3.57 OD450-540 in assay [8]. For the same substance, the concentration giving a half-maximal response (EC50) came to 30.8 nM in [2]; 46.1 nM in assay [3]; 34.4 nM in [4]; 0.22 nM in assay [5]; 55.8 nM in assay [7]; 0.48 nM in assay [8]. In addition, the Max MFI was 19100 MFI in assay [2], 5910 MFI in assay [3], 34200 MFI in assay [4] and 62900 MFI in assay [7]. In assay [6], this substance registered a dissociation constant (Kd) of 36.7 nM.
As to “AMG 340/TNB-585 (BMK1) (bispecific antibody)”, the Max OD450-540 in assay [1] came out at 0.05 OD450-540. In assay [2], this substance came in with a concentration for a half-maximal effect (EC50) of 55.7 nM and a Max MFI of 16300 MFI. In assay [3], the EC50 came to 174 nM and the Max MFI was 5280 MFI. Further, in assay [4], the concentration for a half-maximal effect (EC50) turned out to be 35.3 nM and the Max MFI is 34700 MFI. In assay [6], this substance came in with a Kd of 32.3 nM, a koff of 0.00378 s⁻¹ and a kon of 117000 M⁻¹ s⁻¹. In addition, the Max MFI in [7] stood at 2870 MFI.
With J591 antibody (W3XX042-BMK1), the Kd in [9] came out at 1.82 nM; in assay [10] it was 1.27 nM. In [9], this substance showed a koff of 0.000192 s⁻¹. Further, the half-maximal effective concentration (EC50) amounted to 0.077 nM in [11], 0.011 nM in [12], 3.63 nM in [13] and 0.48 nM in assay [14]. The Max OD450 in assay [11] was found to be 2.34 OD450; in [12] it was 2.79 OD450. The results for the Max MFI in [13] and in assay [14] were 93300 MFI and 3590 MFI, respectively.
Take “human IgG isotype antibody (negative control)”: the EC50 is greater than 100 nM in assay [1], greater than 10 nM in assay [12] and greater than 100 nM in assay [13]. Further, the Max OD450 in assay [1] came to 0.093 OD450; in assay [11], 0.263 OD450; in [12] it was 0.258 OD450. Further, the Max MFI in assay [13] is 34.8 MFI; in assay [14] it was 47.7 MFI.
isotype hIgG4 control (antibody): the Max OD450-540 in assay [1] turned out to be 0.09 OD450-540; in [5], 0.04 OD450-540; in [8], 0.04 OD450-540. Besides, the Max MFI in assay [2] came out at 181 MFI; in [3] it was 372 MFI; in assay [4], 138 MFI; in assay [7] it was 19.9 MFI.
